Assay results published in patent publication US20160129078A1, “Rhomboid Proteins and Uses Thereof” (Queen's University at Kingston, priority 2014, published 2016).

System: E. coli
Experiment: Colony formation of At1g74130-expressing E. coli on agar with increasing ampicillin
Format: cell-based, Escherichia coli
Details: protein expressed in E. coli JM109(DE3) from pET20b; solid agar media; susceptibility at higher concentrations
Procedure: Introduction and expression of At1g74130 was tested in E. coli, by subcloning the corresponding cDNA sequence into a T7 promoter-containing plasmid vector (pET20b) and JM109(DE3), a bacterial strain commonly used for expressing foreign proteins. Two alternative splice variants of At1g74130 were derived by RT-PCR cloning and tested along with the full version of At1g74130, also derived by RT-PCR cloning (see, e.g., FIGS. 3, 4, and 5). The alternative splice variants designated 6/7 and 7/8 are shown in FIGS. 1C and 1D, respectively. A similar procedure was used to express the At1g25290 and UBAC2 variants (see FIGS. 6, 7, and 8).
Alterations to protein translocation were investigated using the plasmid-borne multicopy gene, β-lactamase. The level of β-lactamase is a sensitive monitor of protein translocation and is translocated into the periplasm, where it detoxifies the antibiotic ampicillin, thereby conferring ampicillin-resistance to cells. Because the level of antibiotic resistance conferred also reflects the level of protein transport activity, the level of ampicillin resistance was determined for At1g74130 expressing cells and compared to that of control vector-containing cells on solid agar media containing increasing concentrations of ampicillin. […]

B1: At1g74130 M: 7/8 M-form splice variant of Arabidopsis At1g74130 rhomboid protein (protein, listed as Arabidopsis thaliana)
chain: MHAIFCRRVAVGCSSPQLTKLVTKQASQSRHSLSHLLPFDLSSRFVPPYVVSRSARVHGFFAGKLGNTNLKLKFGNVMESRAGFFSSELPSHGFESGGFTGFQKRGWKSWINGANGVVFGLVIANAAVFTMWRVLGKDNMWMVKNFMLSRYSFMTGRIHTLITSGFSHVGATHIILNMMGLCYFGARIARSFGPRYLLKLYFAGALGGSVFFLSSHALSVISLKGQRVVPKDQLKVPIGKLGANGPVYAITLLDMLLYPKVTTYFGLMLRVPVFAGIYSLGLNIIKMLEVCMMGKTTIP
ampicillin concentration at which expressing cells form colonies: 1.5 mg/mL
